Experiments:
[1] = target: T1, human DSG2 on cells (HeLa cells; polarized T84 cells) (human, UniProt Q14126 50-1118); experiment: cell-based or functional assay
T1 sequence: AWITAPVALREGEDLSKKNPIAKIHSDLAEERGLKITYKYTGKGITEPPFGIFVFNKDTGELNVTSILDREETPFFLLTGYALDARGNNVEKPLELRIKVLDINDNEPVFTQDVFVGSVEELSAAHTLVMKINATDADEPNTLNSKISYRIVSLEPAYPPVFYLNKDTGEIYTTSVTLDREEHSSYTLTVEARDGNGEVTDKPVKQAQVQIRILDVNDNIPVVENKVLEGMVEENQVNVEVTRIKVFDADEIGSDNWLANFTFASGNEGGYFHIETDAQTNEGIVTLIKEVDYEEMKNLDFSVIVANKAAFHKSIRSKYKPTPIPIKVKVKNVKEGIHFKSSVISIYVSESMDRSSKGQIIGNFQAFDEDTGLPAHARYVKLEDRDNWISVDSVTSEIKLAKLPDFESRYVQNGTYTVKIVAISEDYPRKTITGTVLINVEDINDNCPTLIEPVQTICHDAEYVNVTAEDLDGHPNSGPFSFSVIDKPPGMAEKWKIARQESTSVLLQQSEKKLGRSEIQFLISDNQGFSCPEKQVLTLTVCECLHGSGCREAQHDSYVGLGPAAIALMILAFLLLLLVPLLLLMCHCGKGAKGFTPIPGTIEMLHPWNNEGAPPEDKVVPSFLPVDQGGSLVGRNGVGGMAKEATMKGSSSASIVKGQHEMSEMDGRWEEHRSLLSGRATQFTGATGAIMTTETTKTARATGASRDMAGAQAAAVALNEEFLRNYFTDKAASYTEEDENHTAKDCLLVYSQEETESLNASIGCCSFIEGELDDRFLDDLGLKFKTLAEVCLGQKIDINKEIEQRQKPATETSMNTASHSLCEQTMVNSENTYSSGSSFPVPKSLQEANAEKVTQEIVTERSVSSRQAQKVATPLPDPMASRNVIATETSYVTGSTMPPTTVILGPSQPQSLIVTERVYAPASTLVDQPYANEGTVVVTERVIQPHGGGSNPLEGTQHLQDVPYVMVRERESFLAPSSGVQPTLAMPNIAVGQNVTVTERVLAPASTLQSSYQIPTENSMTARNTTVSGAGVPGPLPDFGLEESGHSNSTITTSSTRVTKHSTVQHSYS

[2] = target: T2, Recombinant human DSG2 protein (Leinco Technologies) (human, UniProt Q14126 50-609); experiment: Western blot of dimeric knob (trimer band), soluble recombinant DSG2 as probe, anti-DSG2 mAb
T2 construct: also called soluble DSG2; soluble recombinant DSG2
T2 sequence: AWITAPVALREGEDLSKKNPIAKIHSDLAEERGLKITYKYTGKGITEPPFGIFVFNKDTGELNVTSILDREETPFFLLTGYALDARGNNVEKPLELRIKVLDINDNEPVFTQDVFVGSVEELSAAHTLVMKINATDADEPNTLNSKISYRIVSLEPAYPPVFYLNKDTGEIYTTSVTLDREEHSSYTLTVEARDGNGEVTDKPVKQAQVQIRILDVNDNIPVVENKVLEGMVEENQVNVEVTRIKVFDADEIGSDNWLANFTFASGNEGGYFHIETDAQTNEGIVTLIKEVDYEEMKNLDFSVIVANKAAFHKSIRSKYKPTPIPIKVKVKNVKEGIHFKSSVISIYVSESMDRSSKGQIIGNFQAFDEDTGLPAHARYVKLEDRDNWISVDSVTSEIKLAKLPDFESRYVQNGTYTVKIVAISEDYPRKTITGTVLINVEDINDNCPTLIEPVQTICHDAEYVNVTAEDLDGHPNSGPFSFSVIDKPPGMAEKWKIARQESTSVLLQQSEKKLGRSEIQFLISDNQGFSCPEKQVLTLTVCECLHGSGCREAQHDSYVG

[3] = target: T1, human DSG2 on cells (HeLa cells; …); experiment: attachment of 3H-labelled Ad3 virus (competitor) to HeLa cells pre-incubated with the dimeric knob
[4] = target: T2, Recombinant human DSG2 protein (Leinco …); experiment: SPR (BIAcore 3000), DSG2 immobilised on the sensor chip, knobs injected at 2.5 to 10 µg/ml, BIAeval

B1: dimeric Ad3 fiber knob mutant D261N, L296R (designed binder)
chain: MKVSALKEKVSALKEKVSALKEKVSALKEKVSALKEGSGGGSGGGSGGGSNSIALKNNTLWTGPKPEANCIIEYGKQNPDSKLTLILVKNGGIVNGYVTLMGASDYVNTLFKNKNVSINVELYFDATGHILPDSSSLKTDLELKYKQTADFSARGFMPSTTAYPFVLPNAGTHNENYIFGQCYYKASNGALFPLEVTVMLNKRLPDSRTSYVMTFLWSLNAGRAPETTQATLITSPFTFSYIREDD
notes: also called D261, L296R; combination of D261N and L296R
B1 was tested, and the “Inhibition of infection in the presence of dimeric knob (JO-1 = 100%)” value (“Inhibition of infection … (JO-1 = 100%)” for short) [1] was 1.5%, the “Western blot residual DSG2 binding (wtAd3 knob = 100%)” value [2] was 7% and the “Inhibition of attachment in the presence of dimeric knob (JO-1 = 100%)” value (“Inhibition of attachment … (JO-1 = 100%)” below) [3] was 20.1%.

B2: dimeric Ad3 fiber knob mutant V189G (designed binder)
chain: MKVSALKEKVSALKEKVSALKEKVSALKEKVSALKEGSGGGSGGGSGGGSNSIALKNNTLWTGPKPEANCIIEYGKQNPDSKLTLILVKNGGIVNGYVTLMGASDYVNTLFKNKNGSINVELYFDATGHILPDSSSLKTDLELKYKQTADFSARGFMPSTTAYPFVLPNAGTHNENYIFGQCYYKASDGALFPLEVTVMLNKRLPDSRTSYVMTFLWSLNAGLAPETTQATLITSPFTFSYIREDD
For B2, the “Inhibition of infection … (JO-1 = 100%)” value [1] was 54%, the “Western blot residual DSG2 binding (wtAd3 knob = 100%)” value [2] was 14% and the “Inhibition of attachment … (JO-1 = 100%)” value [3] was 81%.

B3: dimeric Ad3 fiber knob mutant L296R (designed binder)
chain: MKVSALKEKVSALKEKVSALKEKVSALKEKVSALKEGSGGGSGGGSGGGSNSIALKNNTLWTGPKPEANCIIEYGKQNPDSKLTLILVKNGGIVNGYVTLMGASDYVNTLFKNKNVSINVELYFDATGHILPDSSSLKTDLELKYKQTADFSARGFMPSTTAYPFVLPNAGTHNENYIFGQCYYKASDGALFPLEVTVMLNKRLPDSRTSYVMTFLWSLNAGRAPETTQATLITSPFTFSYIREDD
With B3 the “Inhibition of infection … (JO-1 = 100%)” value [1] was 5.1%, the “Western blot residual DSG2 binding (wtAd3 knob = 100%)” value [2] was 3.6% and the “Inhibition of attachment … (JO-1 = 100%)” value [3] was 73.7%.

B4: dimeric Ad3 fiber knob mutant N186D, D261N (designed binder)
chain: MKVSALKEKVSALKEKVSALKEKVSALKEKVSALKEGSGGGSGGGSGGGSNSIALKNNTLWTGPKPEANCIIEYGKQNPDSKLTLILVKNGGIVNGYVTLMGASDYVNTLFKDKNVSINVELYFDATGHILPDSSSLKTDLELKYKQTADFSARGFMPSTTAYPFVLPNAGTHNENYIFGQCYYKASNGALFPLEVTVMLNKRLPDSRTSYVMTFLWSLNAGLAPETTQATLITSPFTFSYIREDD
notes: also called combination of N186D and D261N
For B4, the “Inhibition of infection … (JO-1 = 100%)” value [1] was 5.2%, the “Western blot residual DSG2 binding (wtAd3 knob = 100%)” value [2] was 7% and the “Inhibition of attachment … (JO-1 = 100%)” value [3] was 23.5%.

B5: dimeric Ad3 fiber knob mutant N186D (designed binder)
chain: MKVSALKEKVSALKEKVSALKEKVSALKEKVSALKEGSGGGSGGGSGGGSNSIALKNNTLWTGPKPEANCIIEYGKQNPDSKLTLILVKNGGIVNGYVTLMGASDYVNTLFKDKNVSINVELYFDATGHILPDSSSLKTDLELKYKQTADFSARGFMPSTTAYPFVLPNAGTHNENYIFGQCYYKASDGALFPLEVTVMLNKRLPDSRTSYVMTFLWSLNAGLAPETTQATLITSPFTFSYIREDD
With B5 the “Inhibition of infection … (JO-1 = 100%)” value [1] was 32.7%, the “Western blot residual DSG2 binding (wtAd3 knob = 100%)” value [2] was 5.3% and the “Inhibition of attachment … (JO-1 = 100%)” value [3] was 56.5%.

B6: dimeric Ad3 fiber knob mutant S190P (designed binder)
chain: MKVSALKEKVSALKEKVSALKEKVSALKEKVSALKEGSGGGSGGGSGGGSNSIALKNNTLWTGPKPEANCIIEYGKQNPDSKLTLILVKNGGIVNGYVTLMGASDYVNTLFKNKNVPINVELYFDATGHILPDSSSLKTDLELKYKQTADFSARGFMPSTTAYPFVLPNAGTHNENYIFGQCYYKASDGALFPLEVTVMLNKRLPDSRTSYVMTFLWSLNAGLAPETTQATLITSPFTFSYIREDD
notes: also called 5190P [sic]
For B6, the “Inhibition of infection … (JO-1 = 100%)” value [1] was 30.9%, the “Western blot residual DSG2 binding (wtAd3 knob = 100%)” value [2] was 7.1% and the “Inhibition of attachment … (JO-1 = 100%)” value [3] was 73.4%.

B7: dimeric Ad3 fiber knob mutant E299V (designed binder)
chain: MKVSALKEKVSALKEKVSALKEKVSALKEKVSALKEGSGGGSGGGSGGGSNSIALKNNTLWTGPKPEANCIIEYGKQNPDSKLTLILVKNGGIVNGYVTLMGASDYVNTLFKNKNVSINVELYFDATGHILPDSSSLKTDLELKYKQTADFSARGFMPSTTAYPFVLPNAGTHNENYIFGQCYYKASDGALFPLEVTVMLNKRLPDSRTSYVMTFLWSLNAGLAPVTTQATLITSPFTFSYIREDD
In the case of B7, the “Inhibition of infection … (JO-1 = 100%)” value [1] is reported as 50.7%, the “Western blot residual DSG2 binding (wtAd3 knob = 100%)” value [2] is reported as 20% and the “Inhibition of attachment … (JO-1 = 100%)” value [3] is reported as 97.3%.

B8: dimeric Ad3 fiber knob mutant N186D, D261N, L296R (designed binder)
chain: MKVSALKEKVSALKEKVSALKEKVSALKEKVSALKEGSGGGSGGGSGGGSNSIALKNNTLWTGPKPEANCIIEYGKQNPDSKLTLILVKNGGIVNGYVTLMGASDYVNTLFKDKNVSINVELYFDATGHILPDSSSLKTDLELKYKQTADFSARGFMPSTTAYPFVLPNAGTHNENYIFGQCYYKASNGALFPLEVTVMLNKRLPDSRTSYVMTFLWSLNAGRAPETTQATLITSPFTFSYIREDD
notes: also called mutant with mutations in all three areas (N185, D261, L296)
B8 was tested, and the “Western blot residual DSG2 binding (wtAd3 knob = 100%)” value [2] was 0%.

B9: Ad3 fiber knob mutant E248G+K258E without dimerization domain (ligand)
chain: NKLCSKLGNGLTFDSSNSIALKNNTLWTGPKPEANCIIEYGKQNPDSKLTLILVKNGGIVNGYVTLMGASDYVNTLFKNKNVSINVELYFDATGHILPDSSSLKTDLELKYKQTADFSARGFMPSTTAYPFVLPNAGTHNGNYIFGQCYYEASDGALFPLEVTVMLNKRLPDSRTSYVMTFLWSLNAGLAPETTQATLITSPFTFSYIREDD
notes: range 108-319; not shown: N-terminal 6-His tag of pQE30 and linker
B9 gave a Kd [4] of 49.4 nM, a koff [4] of 0.00147 s⁻¹ and a kon [4] of 29800 M⁻¹ s⁻¹.

B10: Ad3 fiber knob mutant F224L without dimerization domain (ligand)
chain: NKLCSKLGNGLTFDSSNSIALKNNTLWTGPKPEANCIIEYGKQNPDSKLTLILVKNGGIVNGYVTLMGASDYVNTLFKNKNVSINVELYFDATGHILPDSSSLKTDLELKYKQTADLSARGFMPSTTAYPFVLPNAGTHNENYIFGQCYYKASDGALFPLEVTVMLNKRLPDSRTSYVMTFLWSLNAGLAPETTQATLITSPFTFSYIREDD
notes: as for B9
B10 was tested, and the Kd [4] was 78.7 nM, the koff [4] was 0.00269 s⁻¹ and the kon [4] was 34200 M⁻¹ s⁻¹.

B11: Ad3 fiber knob mutant K217E+F224S without dimerization domain (ligand)
chain: NKLCSKLGNGLTFDSSNSIALKNNTLWTGPKPEANCIIEYGKQNPDSKLTLILVKNGGIVNGYVTLMGASDYVNTLFKNKNVSINVELYFDATGHILPDSSSLKTDLELEYKQTADSSARGFMPSTTAYPFVLPNAGTHNENYIFGQCYYKASDGALFPLEVTVMLNKRLPDSRTSYVMTFLWSLNAGLAPETTQATLITSPFTFSYIREDD
notes: range 108-319; also called K217E/F224S mutant (non-dimerized form); not shown: N-terminal 6-His tag of pQE30 and linker
With B11 the Kd [4] was 53.9 nM, the koff [4] was 0.00317 s⁻¹ and the kon [4] was 58800 M⁻¹ s⁻¹.

B12: Ad3 fiber knob mutant N293S without dimerization domain (ligand)
chain: NKLCSKLGNGLTFDSSNSIALKNNTLWTGPKPEANCIIEYGKQNPDSKLTLILVKNGGIVNGYVTLMGASDYVNTLFKNKNVSINVELYFDATGHILPDSSSLKTDLELKYKQTADFSARGFMPSTTAYPFVLPNAGTHNENYIFGQCYYKASDGALFPLEVTVMLNKRLPDSRTSYVMTFLWSLSAGLAPETTQATLITSPFTFSYIREDD
notes: range 108-319; also called N293S/noDD; not shown: N-terminal 6-His tag of pQE30 and linker
B12 gave a Kd [4] of 73.2 nM, a koff [4] of 8.7e-05 s⁻¹ and a kon [4] of 1190 M⁻¹ s⁻¹.

Reference: US20150246949A1, “Desmoglein 2 (DSG2) Binding Proteins and Uses Therefor” (UNIVERSITY OF WASHINGTON THROUGH ITS CENTER FOR …, priority 2012, published 2015)
